In US20210388110A1:
Changes are numbered by the printed parent chain. “And” between values parts separate entries of the source, which are not always exact repeats. Equal entries are not always repeated. Blank lines part the entries; values can stand above or below the binder they belong to.

Target: Mab Select SuRe Ligand
Experiment: SPR (Biacore T200), SuRe ligand on CM5 chip, antibody 5 ug/mL

- SuRe binding (RU): 2.2 RU
B7: TR01H109-E2702GsKsc/L0011-k0 (antibody, human IgG4 S228P, kappa, N297A, V domains shown)
VH: QVQLVESGGGLVQPGRSLRLSCAASGFTFSNAWMHWVRQAPGKGLEWVAQIKDKSQNYATYVAESVKGRFTISRDDSKNSLYLQMNSLKTEDTAVYYCRYVHYAAGYGVDAWGQGTTVTVSS
VL: DIVMTQSPLSLPVTPGEPASISCRSSQPLVHSNRNTYLHWYQQKPGQAPRLLIYKVSNRFSGVPDRFSGSGSGTDFTLKISRVEAEDVGVYYCGQGTQVPYTFGQGTKLEIKR

- SuRe binding (RU): 1490 RU
B10: TR01H114-E2702GsKsc/L0011-k0 (antibody, human IgG4 S228P, kappa, N297A, V domains shown)
VH: B7 VH with L11V, R16G, T60S, V62Y, D75A, L81I, A111I
VL: B7 VL

- SuRe binding (RU): 8.8 RU
B12: TR01H112-E2702GsKsc/L0011-k0 (antibody, human IgG4 S228P, kappa, N297A, V domains shown)
VH: B7 VH with L11V, R16G, T60Q, V62Y, D75A, L81I, A111I
VL: B7 VL

- SuRe binding (RU): 1 RU
B14: TR01H104-E2702GsKsc/L0011-k0 (antibody, human IgG4 S228P, kappa, N297A, V domains shown)
VH: B7 VH with V62I
VL: B7 VL

- SuRe binding (RU): 7 RU
B15: TR01H113-E2702GsKsc/L0011-k0 (antibody, human IgG4 S228P, kappa, N297A, V domains shown)
VH: B7 VH with L11V, R16G, D75A, L81I, A111I
VL: B7 VL

- SuRe binding (RU): 1.4 RU
B16: TR01H103-E2702GsKsc/L0011-k0 (antibody, human IgG4 S228P, kappa, N297A, V domains shown)
VH: B7 VH with V62G
VL: B7 VL

- SuRe binding (RU): 2350 RU
B17: TR01H094-E2702GsKsc/L0011-k0 (antibody, human IgG4 S228P, kappa, N297A, V domains shown)
VH: B7 VH with V62Y, K67S
VL: B7 VL

- SuRe binding (RU): 0.5 RU
B18: TR01H102-E2702GsKsc/L0011-k0 (antibody, human IgG4 S228P, kappa, N297A, V domains shown)
VH: B7 VH with V62F
VL: B7 VL

- SuRe binding (RU): 5070 RU
B19: TR01H084-E2702GsKsc/L0011-k0 (antibody, human IgG4 S228P, kappa, N297A)
heavy: QVQLVESGGGVVQPGGSLRLSCAASGFTFSNAWMHWVRQAPGKGLEWVAQIKDKSQNYATYYAESVKGRFTISRADSKNSIYLQMNSLKTEDTAVYYCRYVHYAAGYGVDIWGQGTTVTVSSASTKGPSVFPLAPCSRSTSESTAALGCLVKDYFPEPVTVSWNSGALTSGVHTFPAVLQSSGLYSLSSVVTVPSSSLGTKTYTCNVDHKPSNTKVDKRVESKYGPPCPPCPAPEFRGGPKVFLFPPKPKDTLMISRTPEVTCVVVDVSQEDPEVQFNWYVDGVEVHNAKTKPREEQFASTYRVVSVLTVLHQDWLNGKEYKCKVSNKGLPSSIEKTISKAKGQPREPQVYTLPPSQKEMTKNQVSLTCLVKGFYPSDIAVEWESNGQPENNYKTTPPVLDSDGSFFLYSKLTVDKSRWQEGNVFSCSVMHEALHNRYTQKSLSLSP
light: DIVMTQSPLSLPVTPGEPASISCRSSQPLVHSNRNTYLHWYQQKPGQAPRLLIYKVSNRFSGVPDRFSGSGSGTDFTLKISRVEAEDVGVYYCGQGTQVPYTFGQGTKLEIKRTVAAPSVFIFPPSDEQLKSGTASVVCLLNNFYPREAKVQWKVDNALQSGNSQESVTEQDSKDSTYSLSSTLTLSKADYEKHKVYACEVTHQGLSSPVTKSFNRGEC

- SuRe binding (RU): 4470 RU
B20: TR01H082-E2702GsKsc/L0011-k0 (antibody, human IgG4 S228P, kappa, N297A)
heavy: B19 heavy with V11L, G16R, A75D, I81L, I111A
light: B19 light

- SuRe binding (RU): 50.7 RU
B21: TR01H111-E2702GsKsc/L0011-k0 (antibody, human IgG4 S228P, kappa, N297A)
heavy: B19 heavy with R19K
light: B19 light

- SuRe binding (RU): 3610 RU
B22: TR01H090-E2702GsKsc/L0011-k0 (antibody, human IgG4 S228P, kappa, N297A)
heavy: B19 heavy with V11L, A75D, I81L, I111A
light: B19 light

- SuRe binding (RU): 29.5 RU
B23: TR01H110-E2702GsKsc/L0011-k0 (antibody, human IgG4 S228P, kappa, N297A)
heavy: B19 heavy with G16R, R19K, A75D, I81L, I111A
light: B19 light

- SuRe binding (RU): 27.5 RU and 15 RU
B24: TR01H091-E2702GsKsc/L0011-k0 (antibody, human IgG4 S228P, kappa, N297A)
heavy: B19 heavy with V11L, G16R, R19K, A75D, I81L, I111A
light: B19 light

The next lines start with the binder.

B1: TR01H093-E2702GsKsc/L0011-k0 (antibody, human IgG4 S228P, kappa, N297A, V domains shown)
VH: B7 VH with V62Y, K67Q
VL: B7 VL
- SuRe binding (RU): 2460 RU

B2: TR01H107-E2702GsKsc/L0011-k0 (antibody, human IgG4 S228P, kappa, N297A, V domains shown)
VH: B7 VH with V62Q
VL: B7 VL
- SuRe binding (RU): 1.4 RU

B3: TR01H108-E2702GsKsc/L0011-k0 (antibody, human IgG4 S228P, kappa, N297A, V domains shown)
VH: B7 VH with V62T
VL: B7 VL
- SuRe binding (RU): 0.4 RU

B4: TR01H100-E2702GsKsc/L0011-k0 (antibody, human IgG4 S228P, kappa, N297A, V domains shown)
VH: B7 VH with T60S, V62Y
VL: B7 VL
- SuRe binding (RU): 383 RU

B5: TR01H105-E2702GsKsc/L0011-k0 (antibody, human IgG4 S228P, kappa, N297A, V domains shown)
VH: B7 VH with V62L
VL: B7 VL
- SuRe binding (RU): 0.8 RU

B6: TR01H101-E2702GsKsc/L0011-k0 (antibody, human IgG4 S228P, kappa, N297A, V domains shown)
VH: B7 VH with T60V, V62Y
VL: B7 VL
- SuRe binding (RU): 0.5 RU

B8: TR01H092-E2702GsKsc/L0011-k0 (antibody, human IgG4 S228P, kappa, N297A, V domains shown)
VH: B7 VH with V62Y, K67A
VL: B7 VL
- SuRe binding (RU): 1160 RU

B9: TR01H099-E2702GsKsc/L0011-k0 (antibody, human IgG4 S228P, kappa, N297A, V domains shown)
VH: B7 VH with T60Q, V62Y
VL: B7 VL
- SuRe binding (RU): 0.6 RU

B11: TR01H098-E2702GsKsc/L0011-k0 (antibody, human IgG4 S228P, kappa, N297A, V domains shown)
VH: B7 VH with T60P, V62Y
VL: B7 VL
- SuRe binding (RU): 1.6 RU

B13: TR01H096-E2702GsKsc/L0011-k0 (antibody, human IgG4 S228P, kappa, N297A, V domains shown)
VH: B7 VH with T60G, V62Y
VL: B7 VL
- SuRe binding (RU): 2.7 RU
